Test results reported in the DeepSol protein solubility set.

Assay: soluble on expression in E. coli; label from the status in PepcDB or PDB records

Row | Sequence | soluble on expression in E. coli
1 | DIELTQSPASLSVATGEKVTIRCMTSTDIDDDMNWYQQKPGEPPKFLISEGNTLRPGVPSRFSSSGTGTDFVFTIENTLSEDVGDYYCLQSFNVPLTFGCGTKLEIK | soluble
2 | MGSDKIHHHHHHSCNEDDGAPYPSVRLEFLTAESGADGRLQTLVTDKGERLVVAEDRTESELLPNSSSRVVSNYEVLSSVGGRKEIRIYALANTVSPVPLPAGEFRNGLKFDPVDMLSIWMGRDYLNMTLSIRAQNARHTFHFIQESVERDAVTGKLKVHLMLYHDDGGDVEAYAKRAYVSVPLRQYTSDIGESVIIYFSFHTYDGEVQTYQFEYVPSHLTINY | not soluble
3 | MEPYVGIVIFELAKSNTSPEENNSFFREDFYIVYADSEEAAHKLVEKRAHEEETPKNAAQDSGPTVTLRHIIDVAPALYGYVDKDCNLYSRHFASLEDYARFEMMLGGKDPLSH | soluble
4 | AHHHHHHGSRIVAITDIHGRRSMVEKLVDVVRREDVDVILIAGDITHFSGAEEAERVLSPLLTLEIPLLAVMGNCDGRDVLDFLEERGVSVHDKRVEIKGVGVVGFGGSNITPFSTIWEFSDDVIYSSLIRNYRQGDIVLTHAPPYGTKLDKTHSGIHAGSMGLRKFIEEKQPKLCICGHIHEGRGVEKIGNTIVVNPGPLARGYYAVIEGDSVELLNLKG | soluble
5 | ACGYSDRVLQLTLGNSTITTQEAANSVVAYGRWPEFIRDDEANPVDQPTEPDVATCRFYTLDTVMWGKESKGWWWKLPDALRDMGLFGQNMYYHYLGRSGYTVHVQCNASKFHQGALGVFAIPEYCLAGDSDKQRYTSYANANPGERGGKFYSQFNKDNAVTSPKREFCPVDYLLGCGVLLGNAFVYPHQIINLRTNNSATIVLPYVNALAIDSMVKHNNWGIAILPLSPLDFAQDSSVEIPITVTIAPMCSEFNGLRNVTAPKFQ | soluble
6 | NEDCNTIFGADFSHEGETPGLGAEITRSEFSGQFIGKEIFKEGEFRSVAVVKKGQKAEGKDYVDGISGGTLTSDGVNEMLISSLRPYALYLMNNVKK | not soluble
7 | MGSDKIHHHHHHMSQTMMLIEKSSHCVSWYDTETGALQGRLALPDFPHEFVVDQDNHYAYVGHYGVQNSGVEGTDGRSVIVIDIRKQEIVHRYDLGEHARPHGISLDAQGRLYVLSEWSGHLLVKENPRAFDQGWDHVTPVGGEKPHLFALTGDGRTAYSMNLNSGDVTVLDPYDPTRIPVSIKTGEKPEGRCLREEAGVLYTSQRISNTVAVVDTKTLQVQRIFPTPQDPCRVYYDAKRNRLVTMNHHGGSFSVFDEATGEMLHEQKTPANPLALCIDDEAAYAYIAIDCEQVQRFNLDTFEVVQTFDTGKEPDVMVILPEGYSKHWEVNA | not soluble
8 | TTGSDGKATFDVTQNETYGLATPLTATLMRDTTKSATMDVIFTVITSPNSPKAKYWGHMPDTFTSRAGVTFKRPLLAAEATLGSSVSNNNESWSYLFYTNKVTPDCPVEYQPRLNELQGLYNDHPGGTILTDLGLPITAGSGNWWTYEMSTTDALTWYYGVINLKTGQSTTTINGYALMLCL | not soluble
9 | MGSDKIHHHHHHIRMKINLGVVGAGIASRELHLPALRKLSDLFTVVAVNSRTRKKAEEFAGIVGGDVRVFDSYEEMLSSDSVDAVVLAVPISLNPKMIIAARRANKPVICEKPVAASVKEAVPLLRLPGSSPVYIAENYRHIEVYEKAAELLKEGRIGIPLAFSWLKWVDFGQDNKYVQTKWRQTPEHVGGFISDGGVHDVAALRKTLGDVEEVSGFTKKSLDYLGAENCVVFNMTLENGVIGNYSVVYGAASPLNRFEIVGTDGLMLVDKDGATIEIFAADREKIFVNKTDGFIEEFRDFYNVVEGEKNSLGTVGEALLDLATIEAGLVSAVEKRVVAVDSLLEES | not soluble
10 | MGSDKIHHHHHHMLTSGLYQSKNQCCGCELCSCVCPKNLIRMQPDDEGFLYPYIETDEGCVHCNKCIKICPMKSSNRNDIVLKASFGGQTRDIDGTRYSSSGGYATAISKQFILEKGVVVGVRYSSDFSKSEYAIAETIEELEQFRTSKYIQAEKGGIYQTIRNIKRKKILFIGLPCEVSALYNYWGRNTDNLYSISLVCHGPTTPKVQNLFASKLKENNNSQIKYFSVRYKESGWKPYYIYADFENGKHHQELFKGSSYEIAFQYLKRPSCSSCRYKLGDQEFGLVSDLTLGDFHAVEKNMLQYSPWGGVSQASVQSEKGEYLIDLARRQCNVEFIPEKYITKYNYAFHHPVAQKTGRESFKRILLREGLDCAAKSLLVQIPTCYINAKRRIISFLYNVKSYLISK | not soluble
11 | MSLSTSSKVVRLDVSRSQQEAVKGVKLPALLIKLRDRCGEHNRKLLDRLFEQVDDSFFDLADKSATNSEQALFFDAMREIRLKKERIAALFMQYYNRDFQFLEVQKPGMLKANFDPQNLTLVQEDKLEEQVAIDNMVNRFKSEIGRDLEHLTIRLDSLLFDVSVEEENNPLGPLRMVTNFVTACAELELGIRAKLVFFKLFEKHVLTQNKAVLEAANKFLAEQGVMPDLSASRSVRRTGVNLPHASGSVIDQNTGAVGDYNEGGWDPQIDPLQYMRQFSDAQMAGAAGAAVNLPVVQQTALLNLLSRLQTTNKAPATALSDNGLINFMGLMERAVLSKEGQPRASVGRLDQDVMNLVTMLFEFILDDRQLPAAIRAVIARLQIPILKVALLDRTFFNQGGHSARRLLNEMATASIGWTEKAPGEPDAFLAKLEEVVQRLVTEFDNDITIFDEVLEDFIRFRESDKKRRHLLEQRTRDAEVGRAKSDAAKKVVQDVLNDMLAGKNIPALVMEVLKEGWSNYMVLLQLKSGREHPDWLQAQSVAARLIQGCDPDDTSGEAPEVAAVEKLMEELRVGLQQTAYKPFELDKTLRQLQKVLSETTQQRLAKEVTLDDEGHHHHHH | soluble
12 | MTEGDDQLISIRKQLENLNNATDDINSYEMKLETVKKQFCETQLMFNKEMLGIPKKLAKHISKSRQFFDLKSRESEIRRCVQQAAAQFERQKTSVEMAREQVQILHNSLNNNQELDAEKQYVDVIEQQLELVKEAEGECLKAEKCHASRVRDLLQLEMALRKCLEENGSAIKKSRPYYERKEVLTRTMNSQLELMSILEHEVQERKDSYSDSMRALEQISDQIHQERSSQSSLAPSSDAESDSS | not soluble
13 | QQFFFENDALGQSSTDFATNFLNLWDNNREQLLNLYSPQSQFSVSVDSTIPPSTVTDSDQTPAFGYYMSSSRNISKVSSEKSIQQRLSIGQESINSIFKTLPKTKHHLQEQPNEYSMETISYPQINGFVITLHGFFEETGKPELESNKKTGKNNYQKNRRYNHGYNSTSNNKLSKKSFDRTWVIVPMNNSVIIASDLLTVRAYSTGAWKTASIAIAQAAGS | soluble
14 | MGSDKIHHHHHHMIDAFVRIGPLMDPASYPQWAQQLIEDCRESKRRVVEHEFYARLRDGQLKQSTIRQYLIGGWPVVEQFSLYMAHNLTKTRYGRHQGEDMARRWLMRNIRVELNHADYWVNWCQAHGVHLHELQAQEVPPELNGLNDWCWRVCATENLAISMAATNYAIEGATGEWSAVVCSTDTYAQGFPEEGRKRAMKWLKMHAQYDDAHPWEALEIICTLAGENPTLGLRTELRRAICKSYDCMFLFLERCMQLEGRQQGRMRPALAAG | not soluble
15 | SLCDKIFHNLSGKTLVATPYVITKGIYHKSLIYMLSHTEEGAIGLIFNRLVNHVDLKSFFKIKEDKITSQVIVPIYLGGPIEHEKGFFLHSRDYNKNLLLDFHNDLAVSSNLEISEDIAFGQGPKNSLFIVGYTAWKPGQLEEELEKNLWLVMDCNKEFIFADNPENKWHNALKHLGIDEMYFSSQIGNA | soluble
16 | VKMIFIFIDGFGIGKEDASVNPLANPELPNINYILNKAGAIPTDACLDVPGLPQSATGQTTIFTGQNASKVLSRHLHGQPTITLKKMIIENNLFKELIKRGFSVTNSNVYRTPYIEKIKDPKERKYRPSVTTVMTLSCGLNLRTVEEYITGDGVYHDIIGEILKNEGYVEELITPREAAQRLYSLSRKYDFTLFEYFVTDILGHKMEMEEAVEKLKILDAFLGELLNLYNEDEDIIFITSDHGNIEDLTVNTHTFNKVPTVILGKIPENVEIEINSLTDIMPTILKIFDAKGEL | soluble
17 | MSLESILDVLSVMYINAQLPREQRHRWRLLFSSELHGHSFSQLCGHITHRGPCVAVLEDHDKHVFGGFASCSWEVKPQFQGDNRCFLFSICPSMAVYTHTGYNDHYMYLNHGQQTIPNGLGMGGQHNYFGLWVDVDFGKGHSRAKPTCTTYNSPQLSAQENFQFDKMEVWAVGDPSEEQLAKGNKSILDADPEAQALLEISGHSRHSEGLREVPDDEGHHHHHH | not soluble
